Assay results from patent US20240100162A1 (published 2024).

Assays:
[1] = molecular target: T1, MAGE-B2 peptide, E6T peptide on HLA-A*02:01 (human); test: killing
T1 peptide: GVYDGTEHSV

[2] = molecular target: T2, MAGE-B2 peptide, E6V peptide on HLA-A*02:01 (human); test: killing
T2 peptide: GVYDGVEHSV

[3] = molecular target: T3, MAGE-B2 peptide, E7C peptide on HLA-A*02:01 (human); test: killing
T3 peptide: GVYDGECHSV

[4] = molecular target: T4, MAGE-B2 peptide, E7D peptide on HLA-A*02:01 (human); test: killing
T4 peptide: GVYDGEDHSV

[5] = molecular target: T5, MAGE-B2 peptide, E7H peptide on HLA-A*02:01 (human); test: killing
T5 peptide: GVYDGEHHSV

[6] = molecular target: T6, MAGE-B2 peptide, E7L peptide on HLA-A*02:01 (human); test: killing
T6 peptide: GVYDGELHSV

[7] = molecular target: T7, MAGE-B2 peptide, E7M peptide on HLA-A*02:01 (human); test: killing
T7 peptide: GVYDGEMHSV

[8] = molecular target: T8, MAGE-B2 peptide, E7N peptide on HLA-A*02:01 (human); test: killing
T8 peptide: GVYDGENHSV

[9] = molecular target: T9, MAGE-B2 peptide, E7Q peptide on HLA-A*02:01 (human); test: killing
T9 peptide: GVYDGEQHSV

[10] = molecular target: T10, MAGE-B2 peptide, E7Y peptide on HLA-A*02:01 (human); test: killing
T10 peptide: GVYDGEYHSV

[11] = molecular target: T11, MAGE-B2 peptide, H8F peptide on HLA-A*02:01 (human); test: killing
T11 peptide: GVYDGEEFSV

[12] = molecular target: T12, MAGE-B2 peptide, H8G peptide on HLA-A*02:01 (human); test: killing
T12 peptide: GVYDGEEGSV

[13] = molecular target: T13, MAGE-B2 peptide, H8K peptide on HLA-A*02:01 (human); test: killing
T13 peptide: GVYDGEEKSV

[14] = molecular target: T14, MAGE-B2 peptide, H8N peptide on HLA-A*02:01 (human); test: killing
T14 peptide: GVYDGEENSV

[15] = molecular target: T15, MAGE-B2 peptide, H8P peptide on HLA-A*02:01 (human); test: killing
T15 peptide: GVYDGEEPSV

[16] = molecular target: T16, MAGE-B2 peptide, H8W peptide on HLA-A*02:01 (human); test: killing
T16 peptide: GVYDGEEWSV

[17] = molecular target: T17, MAGE-B2 peptide, H8Y peptide on HLA-A*02:01 (human); test: killing
T17 peptide: GVYDGEEYSV

[18] = molecular target: T18, MAGE-B2 peptide, S9A peptide on HLA-A*02:01 (human); test: killing
T18 peptide: GVYDGEEHAV

[19] = molecular target: T19, MAGE-B2 peptide, S9C peptide on HLA-A*02:01 (human); test: killing
T19 peptide: GVYDGEEHCV

[20] = molecular target: T20, MAGE-B2 peptide, S9D peptide on HLA-A*02:01 (human); test: killing
T20 peptide: GVYDGEEHDV

[21] = molecular target: T21, MAGE-B2 peptide, S9E peptide on HLA-A*02:01 (human); test: killing
T21 peptide: GVYDGEEHEV

[22] = molecular target: T22, MAGE-B2 peptide, S9G peptide on HLA-A*02:01 (human); test: killing
T22 peptide: GVYDGEEHGV

[23] = molecular target: T23, MAGE-B2 peptide, S9I peptide on HLA-A*02:01 (human); test: killing
T23 peptide: GVYDGEEHIV

[24] = molecular target: T24, MAGE-B2 peptide, S9N peptide on HLA-A*02:01 (human); test: killing
T24 peptide: GVYDGEEHNV

[25] = molecular target: T25, MAGE-B2 peptide, S9P peptide on HLA-A*02:01 (human); test: killing
T25 peptide: GVYDGEEHPV

[26] = molecular target: T26, MAGE-B2 peptide, S9Q peptide on HLA-A*02:01 (human); test: killing
T26 peptide: GVYDGEEHQV

[27] = molecular target: T27, MAGE-B2 peptide, S9T peptide on HLA-A*02:01 (human); test: killing
T27 peptide: GVYDGEEHTV

[28] = molecular target: T28, MAGE-B2 peptide, S9V peptide on HLA-A*02:01 (human); test: killing
T28 peptide: GVYDGEEHVV

[29] = molecular target: T29, MAGE-B2 peptide, S9W peptide on HLA-A*02:01 (human); test: killing
T29 peptide: GVYDGEEHWV

[30] = molecular target: T30, MAGE-B2 peptide, V10A peptide on HLA-A*02:01 (human); test: killing
T30 peptide: GVYDGEEHSA

[31] = molecular target: T31, MAGE-B2 peptide, V10I peptide on HLA-A*02:01 (human); test: killing
T31 peptide: GVYDGEEHSI

[32] = molecular target: T32, MAGE-B2 peptide, V10L peptide on HLA-A*02:01 (human); test: killing
T32 peptide: GVYDGEEHSL

[33] = molecular target: T33, MAGE-B2 peptide, V2I peptide on HLA-A*02:01 (human); test: killing
T33 peptide: GIYDGEEHSV

[34] = molecular target: T34, MAGE-B2 peptide, V2L peptide on HLA-A*02:01 (human); test: killing
T34 peptide: GLYDGEEHSV

[35] = molecular target: T35, MAGE-B2 peptide, V2M peptide on HLA-A*02:01 (human); test: killing
T35 peptide: GMYDGEEHSV

[36] = molecular target: T36, MAGE-B2 peptide, V2T peptide on HLA-A*02:01 (human); test: killing
T36 peptide: GTYDGEEHSV

[37] = molecular target: T37, MAGE-B2 peptide, Y3F peptide on HLA-A*02:01 (human); test: killing
T37 peptide: GVFDGEEHSV

[38] = molecular target: T38, MAGE-B2 peptide, D4C peptide on HLA-A*02:01 (human); test: killing
T38 peptide: GVYCGEEHSV

[39] = molecular target: T39, MAGE-B2 peptide, D4N peptide on HLA-A*02:01 (human); test: killing
T39 peptide: GVYNGEEHSV

[40] = molecular target: T40, MAGE-B2 peptide on HLA-A*02:01 (human); test: multimer staining
T40 peptide: GVYDGEEHSV

[41] = molecular target: T41, MAGE-B2 peptide, G5S peptide on HLA-A*02:01 (human); test: killing
T41 peptide: GVYDSEEHSV

Measured: binding result

B1: TCR2 (TCR, V domains shown)
Valpha: QKEVEQNSGPLSVPEGAIASLNCTYSDRGSQSFFWYRQYSGKSPELIMSIYSNGDKEDGRFTAQLNKASQYVSLLIRDSQPSDSATYLCAVNIPFSNSGGYQKVTFGTGTKLQVIP
Vbeta: NAGVTQTPKFRVLKTGQSMTLLCAQDMNHEYMYWYRQDPGMGLRLIHYSVGEGTTAKGEVPDGYNVSRLKKQNFLLGLESAAPSQTSVYFCASRHPGQYNQPQHFGDGTRLSIL
not listed: [41]
recognises: all other assays above

B2: TCR1 (TCR, V domains shown)
Valpha: KQEVTQIPAALSVPEGENLVLNCSFTDSAIYNLQWFRQDPGKGLTSLLLIQSSQREQTSGRLNASLDKSSGRSTLYIAASQPGDSATYLCAAMKTSYDKVIFGPGTSLSVIP
Vbeta: GEEVAQTPKHLVRGEGQKAKLYCAPIKGHSYVFWYQQVLKNEFKFLISFQNENVFDETGMPKERFSAKCLPNSPCSLEIQATKLEDSAVYFCASSQGQGGYGYTFGSGTRLTVV
not listed: [1] | [12] | [13] | [15]
recognises: all other assays above
